B1: Cell division cycle 7-related protein kinase (Homo sapiens), O00311 (parent)
chain: MEASLGIQMDEPMAFSPQRDRFQAEGSLKKNEQNFKLAGVKKDIEKLYEAVPQLSNVFKIEDKIGEGTFSSVYLATAQLQVGPEEKIALKHLIPTSHPIRIAAELQCLTVAGGQDNVMGVKYCFRKNDHVVIAMPYLEHESFLDILNSLSFQEVREYMLNLFKALKRIHQFGIVHRDVKPSNFLYNRRLKKYALVDFGLAQGTHDTKIELLKFVQSEAQQERCSQNKSHIITGNKIPLSGPVPKELDQQSTTKASVKRPYTNAQIQIKQGKDGKEGSVGLSVQRSVFGERNFNIHSSISHESPAVKLMKQSKTVDVLSRKLATKKKAISTKVMNSAVMRKTASSCPASLTCDCYATDKVCSICLSRRQQVAPRAGTPGFRAPEVLTKCPNQTTAIDMWSAGVIFLSLLSGRYPFYKASDDLTALAQIMTIRGSRETIQAAKTFGKSILCSKEVPAQDLRKLCERLRGMDSSTPKLTSDIQGHASHQPAISEKTDHKASCLVQTPPGQYSGNSFKKGDSNSCEHCFDEYNTNLEGWNEVPDEAYDLLDKLLDLNPASRITAEEALLHPFFKDMSL
partner: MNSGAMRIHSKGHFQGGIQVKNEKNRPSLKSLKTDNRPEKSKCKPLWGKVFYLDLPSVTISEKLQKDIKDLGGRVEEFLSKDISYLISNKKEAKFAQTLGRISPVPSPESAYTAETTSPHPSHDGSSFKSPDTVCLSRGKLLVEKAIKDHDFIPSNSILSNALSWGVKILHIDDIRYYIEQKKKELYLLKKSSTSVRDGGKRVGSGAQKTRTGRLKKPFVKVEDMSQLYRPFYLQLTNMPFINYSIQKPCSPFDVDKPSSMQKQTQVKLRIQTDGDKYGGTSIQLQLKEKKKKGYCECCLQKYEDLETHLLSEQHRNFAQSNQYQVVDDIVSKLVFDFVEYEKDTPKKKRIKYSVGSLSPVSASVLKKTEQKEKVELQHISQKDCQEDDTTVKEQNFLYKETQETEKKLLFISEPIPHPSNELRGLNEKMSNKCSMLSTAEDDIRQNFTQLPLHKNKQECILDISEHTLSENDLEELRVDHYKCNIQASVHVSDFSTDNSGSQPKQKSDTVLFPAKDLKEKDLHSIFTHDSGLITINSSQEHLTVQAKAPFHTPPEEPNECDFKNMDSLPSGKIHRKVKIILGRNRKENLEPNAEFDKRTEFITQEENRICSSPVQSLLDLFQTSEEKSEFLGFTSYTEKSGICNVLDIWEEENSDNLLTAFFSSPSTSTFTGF
B2: Fanconi anemia group G protein (Homo sapiens), O15287 (parent)
chain: MSRQTTSVGSSCLDLWREKNDRLVRQAKVAQNSGLTLRRQQLAQDALEGLRGLLHSLQGLPAAVPVLPLELTVTCNFIILRASLAQGFTEDQAQDIQRSLERVLETQEQQGPRLEQGLRELWDSVLRASCLLPELLSALHRLVGLQAALWLSADRLGDLALLLETLNGSQSGASKDLLLLLKTWSPPAEELDAPLTLQDAQGLKDVLLTAFAYRQGLQELITGNPDKALSSLHEAASGLCPRPVLVQVYTALGSCHRKMGNPQRALLYLVAALKEGSAWGPPLLEASRLYQQLGDTTAELESLELLVEALNVPCSSKAPQFLIEVELLLPPPDLASPLHCGTQSQTKHILASRCLQTGRAGDAAEHYLDLLALLLDSSEPRFSPPPSPPGPCMPEVFLEAAVALIQAGRAQDALTLCEELLSRTSSLLPKMSRLWEDARKGTKELPYCPLWVSATHLLQGQAWVQLGAQKVAISEFSRCLELLFRATPEEKEQGAAFNCEQGCKSDAALQQLRAAALISRGLEWVASGQDTKALQDFLLSVQMCPGNRDTYFHLLQTLKRLDRRDEATALWWRLEAQTKGSHEDALWSLPLYLESYLSWIRPSDRDAFLEEFRTSLPKSCDL
B3: "tRNA (guanine-N(7)-)-methyltransferase non-catalytic subunit WDR4" (Homo sapiens), P57081 (parent)
chain: MAGSVGLALCGQTLVVRGGSRFLATSIASSDDDSLFIYDCSAAEKKSQENKGEDAPLDQGSGAILASTFSKSGSYFALTDDSKRLILFRTKPWQCLSVRTVARRCTALTFIASEEKVLVADKSGDVYSFSVLEPHGCGRLELGHLSMLLDVAVSPDDRFILTADRDEKIRVSWAAAPHSIESFCLGHTEFVSRISVVPTQPGLLLSSSGDGTLRLWEYRSGRQLHCCHLASLQELVDPQAPQKFAASRIAFWCQENCVALLCDGTPVVYIFQLDARRQQLVYRQQLAFQHQVWDVAFEETQGLWVLQDCQEAPLVLYRPVGDQWQSVPESTVLKKVSGVLRGNWAMLEGSAGADASFSSLYKATFDNVTSYLKKKEERLQQQLEKKQRRRSPPPGPDGHAKKMRPGEATLSC
partner: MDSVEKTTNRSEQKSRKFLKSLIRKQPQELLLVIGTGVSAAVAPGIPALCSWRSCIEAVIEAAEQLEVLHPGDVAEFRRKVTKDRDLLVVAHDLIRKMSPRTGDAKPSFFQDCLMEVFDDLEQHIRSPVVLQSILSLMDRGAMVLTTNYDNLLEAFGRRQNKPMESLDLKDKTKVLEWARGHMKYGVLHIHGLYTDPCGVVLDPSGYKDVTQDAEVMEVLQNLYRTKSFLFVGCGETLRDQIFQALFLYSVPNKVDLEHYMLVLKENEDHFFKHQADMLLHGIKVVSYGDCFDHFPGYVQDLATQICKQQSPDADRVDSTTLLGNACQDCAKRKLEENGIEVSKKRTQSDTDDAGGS

Variants of: B1
Conditions: with dbf4a_human DBF4, Q9UBU7

effect of a mutation on the interaction	Variant
with no effect	K416T
with no effect	I99L
with no effect	I99T
with no effect	Q106R

Variants of: B2
Conditions: with mbip1_human MBIP

effect of a mutation on the interaction	Variant
with no effect	S7F
with no effect	T297I

Variants of: B2
Conditions: with KRT15, P19012
Chain of KRT15, P19012 (P19012 whole entry): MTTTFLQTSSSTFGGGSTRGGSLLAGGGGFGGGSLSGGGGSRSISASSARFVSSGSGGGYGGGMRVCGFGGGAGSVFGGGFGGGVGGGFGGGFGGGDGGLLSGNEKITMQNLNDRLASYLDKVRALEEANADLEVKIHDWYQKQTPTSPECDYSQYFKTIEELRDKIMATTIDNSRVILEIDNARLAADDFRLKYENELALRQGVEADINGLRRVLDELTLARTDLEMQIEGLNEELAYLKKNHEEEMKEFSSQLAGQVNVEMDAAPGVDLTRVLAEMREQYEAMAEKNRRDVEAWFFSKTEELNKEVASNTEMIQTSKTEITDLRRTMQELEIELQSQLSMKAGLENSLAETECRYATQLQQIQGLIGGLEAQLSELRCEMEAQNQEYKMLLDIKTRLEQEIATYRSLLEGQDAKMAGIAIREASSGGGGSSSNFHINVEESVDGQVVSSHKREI

effect of a mutation on the interaction	Variant
with no effect	S7F
with no effect	T297I

Variants of: B2
Conditions: with cenpr_human ITGB3BP

effect of a mutation on the interaction	Variant
with no effect	S7F
with no effect	T297I

Variants of: B2
Conditions: with KRT19, P08727
Chain of KRT19, P08727 (P08727 whole entry): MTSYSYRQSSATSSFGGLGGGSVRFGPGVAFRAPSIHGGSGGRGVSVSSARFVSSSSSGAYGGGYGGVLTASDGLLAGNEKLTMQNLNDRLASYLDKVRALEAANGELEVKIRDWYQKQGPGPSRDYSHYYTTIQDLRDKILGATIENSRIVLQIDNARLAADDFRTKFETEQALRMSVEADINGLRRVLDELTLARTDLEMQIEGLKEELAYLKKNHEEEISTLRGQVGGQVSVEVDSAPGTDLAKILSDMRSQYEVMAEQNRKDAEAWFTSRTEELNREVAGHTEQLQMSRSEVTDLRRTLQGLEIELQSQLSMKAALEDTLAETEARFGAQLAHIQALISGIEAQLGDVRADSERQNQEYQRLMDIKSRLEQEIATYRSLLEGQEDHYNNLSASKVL

effect of a mutation on the interaction	Variant
with no effect	S7F
with no effect	T297I

Variants of: B3
Conditions: with FAM118A

effect of a mutation on the interaction	Variant
with no effect	A275T
